Laboratory results: publication PMC13544220, “Glycemic and bodyweight effects of GIPR coding variation reflect differences in surface expression and intrinsic functional impairment” (Science Advances, 2026)

What was measured:
Type in all cases: cell-based, human
[1] = system: wild-type and variant SNAP-GIPR; assay: Surface SNAP-GIPR expression (SNAP-tag labelling) in AD293 cells; conditions: for AD293 Surface: Fig S3E, mean; for Surface SNAP-GIPR expression: sheet Fig 1C;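 on all read-outs here: scaled to the experimental average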
Summary of the method: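 Read-out: whole-cell fluorescence of surface-only SNAP label (Alexa Fluor 647, 500 nM, 10 min, RT), wide-field 20X, several FOVs per well. Flat-field corrected, phase-contrast masked, nontransfected-well signal subtracted; normalized to experiment mean or wild-type.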

[2] = system: wild-type and variant SNAP-GIPR; assay: Surface SNAP-GIPR expression (SNAP-tag labelling) in INS-1 cells; conditions: Fig 4G; Mean
Description: Twenty-four hours before the experiment, AD293 or INS-1 cells were reverse transfected with GIPR variant or wild-type plasmids using Lipofectamine 2000 in 96-well, clear-bottom, black microplates precoated with poly-D-lysine. All variants were tested in parallel on each occasion to control for transfection efficiency differences between experiments. Cells were then labeled using the cell-impermeant probe SNAP-Surface Alexa Fluor 647 (500 nM, New England Biolabs, USA) for 10 min at room temperature to label only surface GIPR. […] Several fields of view (FOVs) were acquired within each well using a 20X, 0.75–numerical aperture (NA) air objective. Surface GIPR fluorescence was quantified after flat-field correction using BaSiC ([72]) and segmenting using Phantast ([73]), which generates a mask based on the phase contrast images to demarcate cell versus noncell. Wide-field imaging of the surface-specific labeling achieved by SNAP-Surface probes means that surface expression can be established from whole-cell fluorescence, after subtracting nonspecific fluorescence from a separate well containing nontransfected cells processed in parallel from the same experiment. Data were normalized by dividing by the average specific signal across each experiment, or by the wild-type value, as indicated in the figure legends.

[3] = system: wild-type and variant SNAP-GIPR; assay: Single-concentration GIP cAMP response by HTRF in AD293 cells; conditions: Fig S3F, HTRF, mean;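 further: ratio to experiment-wide average response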
Description: (§1) All variants were tested in parallel on each occasion to control for transfection efficiency differences between experiments.

[4] = system: wild-type and variant SNAP-GIPR; assay: Single-concentration GIP cAMP response by HTRF in INS-1 cells; conditions: Fig S3E, mean
Description: as §1

[5] = system: wild-type and variant SNAP-GIPR; assay: cADDis cAMP imaging in AD293 cells, ensemble, expression-matched and per decile; conditions: Fig S3F, cADDis, mean
Description: AD293 cells were reverse transfected with the GIPR variant or wild-type plasmids using Lipofectamine 2000 and cotransduced with the cADDis Green Up BacMam (10 μl per well, Montana Molecular, USA), in 96-well, poly-D-lysine–coated microplates. All variants were tested in parallel on each occasion to control for transfection efficiency differences between experiments. After 24 hours, cells were labeled using 500 nM SNAP-Surface Alexa Fluor 647 for 10 min at room temperature. Cells were washed three times and then imaged in KRBH buffer containing 6 mM glucose and 0.1% BSA. Imaging was performed at 37°C by wide-field microscopy using the same microscope as in the “Assessment of surface GIPR expression by SNAP-tag labeling in cell lines” section, with 9 FOVs for both cADDis and SNAP-Surface fluorescence acquired from each well using a 10X, 0.45 NA air objective. […] Flat-field correction was performed using BaSiC ([72]), drift correction was performed using SIFT, and a maximum intensity projection of the cADDis channel was used to segment individual cells. cAMP responses were determined by quantifying the cADDis fluorescence intensity for each cell at each time point. Nonviable cells or noncell objects were excluded according to criteria for allowable cell IBMX/FSK responses. […] The cADDis mask was then used to quantify the SNAP-Surface signal from each cell. Wild-type SNAP-Surface readings were split into deciles, and these deciles were subsequently used to categorize variant-transfected cells to match against the wild type. After trimming the top and bottom deciles, the mean was taken of each decile mean for surface expression level or cAMP response, which achieved matched expression levels by effectively applying an inverse weighting to counteract differences in cell number in each decile for different variants. Ensemble expression levels or cAMP responses were calculated without regard to deciles. Variant cADDis responses were also analyzed within their own surface expression deciles.

[6] = system: wild-type and variant SNAP-GIPR; assay: Constitutive and agonist-mediated internalization, reversible SNAP-tag labelling, AD293 cells; parameters: key to Internalisation, Vehicle / Internalisation, +GIP / Internalisation, GIP-only: % internalization: residual fluorescence after Mesna vs pre-Mesna; Surface expression: unit not given here; conditions: Mean
Description: (§2) Twenty-four hours before the experiment, AD293 or INS-1 cells were reverse transfected with GIPR variant or wild-type plasmids using Lipofectamine 2000 in 96-well, clear-bottom, black microplates precoated with poly-D-lysine. All variants were tested in parallel on each occasion to control for transfection efficiency differences between experiments. […] Media were then removed, cells washed with PBS and then placed in TNE buffer (pH 8.6) for imaging. […] After 10 min, the well was reimaged again to detect remaining fluorescence from internalized GIPR. Images were analyzed as in the “Assessment of surface GIPR expression by SNAP-tag labeling in cell lines” section, with the residual specific fluorescence after Mesna treatment expressed relative to the pre-Mesna value to establish percentage internalization.

[7] = system: wild-type and variant SNAP-GIPR; assay: Constitutive and agonist-mediated internalization, reversible SNAP-tag labelling, INS-1 cells; parameters: key to Internalisation, GIP-only / Internalisation, Vehicle / Internalisation, +GIP: % internalization: residual fluorescence after Mesna vs pre-Mesna; conditions: Mean
Description: as §2

B1: A268V (protein, UniProt P48546 22-466, looked up, variant A268V)
Gastric inhibitory …: RAETGSKGQTAGELYQRWERYRRECQETLAAAEPPSGLACNGSFDMYVCWDYAAPNATARASCPWYLPWHHHVAAGFVLRQCGSDGQWGLWRDHTQCENPEKNEAFLDQRLILERLQVMYTVGYSLSLATLLLALLILSLFRRLHCTRNYIHINLFTSFMLRAAAILSRDRLLPRPGPYLGDQALALWNQALAACRTAQIVTQYCVGANYTWLLVEGVYLHSLLVLVGGSEEGHFRYYLLLGWGAPVLFVIPWVIVRYLYENTQCWERNEVKAIWWIIRTPILMTILINFLIFIRILGILLSKLRTRQMRCRDYRLRLARSTLTLVPLLGVHEVVFAPVTEEQARGALRFAKLGFEIFLSSFQGFLVSVLYCFINKEVQSEIRRGWHHCRLRRSLGEEQRQLPERAFRALPSGSGPGEVPTSRGLSSGTLPGPGNEASRELESYC
With B1 the “AD293 Surface” value ([1]; column repeated, paired with cAMP 100 nM) was 1.382, the “AD293 Surface” value ([1]; paired with cAMP 100 pM) was 1.382 and the “Surface SNAP-GIPR expression” value ([1]; replicate 1) was 1.352. The “Surface SNAP-GIPR expression” value ([1]; replicate 2) was 1.469, the “Surface SNAP-GIPR expression” value ([1]; replicate 3) was 1.684 and the “Surface SNAP-GIPR expression” value ([1]; replicate 4) was 1.15. The “Surface SNAP-GIPR expression” value ([1]; replicate 5) was 1.545, the “Surface SNAP-GIPR expression” value ([1]; replicate 6) was 1.48 and the “Surface SNAP-GIPR expression” value ([1]; replicate 7) was 1.735. The “Surface SNAP-GIPR expression” value ([1]; replicate 8) was 0.9896, the “Surface SNAP-GIPR expression” value ([1]; replicate 9) was 1.756 and the “Surface SNAP-GIPR expression” value ([1]; replicate 10) was 1.344. For the same molecule, the “Surface SNAP-GIPR expression” value ([1]; replicate 11) was 1.392, the “Surface SNAP-GIPR expression” value ([1]; replicate 12) was 1.329 and the “Surface SNAP-GIPR expression” value ([1]; replicate 13) was 1.75. The “Surface SNAP-GIPR expression” value ([1]; replicate 14) was 1.057, the “Surface SNAP-GIPR expression” value ([1]; replicate 15) was 1.196 and the “Surface SNAP-GIPR expression” value ([1]; replicate 16) was 1.17. For the same molecule, the “Surface SNAP-GIPR expression” value ([1]; replicate 17) was 1.366, the “Surface SNAP-GIPR expression” value ([1]; replicate 18) was 1.286 and the “Surface SNAP-GIPR expression” value ([1]; replicate 19) was 1.239. For the same molecule, the “Surface SNAP-GIPR expression” value ([1]; replicate 20) was 1.203, the “Surface SNAP-GIPR expression” value ([1]; replicate 21) was 1.125 and the “Surface SNAP-GIPR expression” value ([1]; replicate 22) was 1.189. The “Surface SNAP-GIPR expression” value ([1]; replicate 23) was 1.374, the “Surface SNAP-GIPR expression” value ([1]; replicate 24) was 1.314 and the “Surface SNAP-GIPR expression” value ([1]; replicate 25) was 1.303. For the same molecule, the “Surface SNAP-GIPR expression” value ([1]; replicate 26) was 1.296, the “Surface SNAP-GIPR expression” value ([1]; replicate 27) was 1.545 and the “Surface SNAP-GIPR expression” value ([1]; replicate 28) was 1.175. For the same molecule, the “Surface SNAP-GIPR expression” value ([1]; replicate 29) was 1.642, the “Surface SNAP-GIPR expression” value ([1]; replicate 30) was 1.674 and the “Surface SNAP-GIPR expression” value ([1]; replicate 31) was 1.459. The “Surface SNAP-GIPR expression” value ([1]; replicate 32) was 1.555, the “Surface SNAP-GIPR expression” value ([1]; replicate 33) was 1.663 and the “Surface SNAP-GIPR expression” value ([1]; replicate 34) was 1.328. For the same molecule, the “Surface SNAP-GIPR expression” value ([1]; replicate 35) was 1.277, the “Surface SNAP-GIPR expression” value ([1]; replicate 36) was 1.382 and the “Surface SNAP-GIPR expression” value ([1]; replicate 37) was 1.6. The “Surface SNAP-GIPR expression” value ([1]; replicate 38) was 1.461, the “Surface SNAP-GIPR expression” value ([1]; replicate 39) was 1.123 and the “Surface SNAP-GIPR expression” value ([1]; replicate 40) was 1.335. The “Surface SNAP-GIPR expression” value ([1]; replicate 41) was 1.367, the Surface expression [2] was 1.2654 and the “AD293 100 pM HTRF” value ([3]; AD293, 100 pM) was 2.332. The “AD293 100 nM HTRF” value ([3]; AD293, 100 nM) was 1.283, the “INS-1 cAMP (100 nM)” value [4] was 1.343 and the “AD293 100 pM cADDis” value ([5]; AD293, 100 pM) was 34.2441. For the same molecule, the “AD293 100 nM cADDis” value ([5]; AD293, 100 nM) was 37.42, the “+GIP internalisation (100 nM)” value ([6]; Fig 4E, GIP 100 nM) was 0.7963 and the “GIP-specific internalisation (100 nM)” value ([6]; Fig 4E, GIP 100 nM) was 0.2682. The “Constitutive internalisation (100 nM)” value ([6]; Fig 4E) was 0.5281, the Surface expression ([6]; Fig 4E) was 1.472 and the “Internalisation, +GIP” value ([6]; Fig S4C, AD293) was 57.341. For the same molecule, the “Internalisation, GIP-only” value ([6]; Fig S4C, AD293) was 19.4051, the “Internalisation, Vehicle” value ([6]; Fig S4C, AD293) was 37.9359 and the “+GIP internalisation (100 nM)” value ([7]; Fig 4G, GIP 100 nM) was 0.6195. For the same molecule, the “GIP-specific internalisation (100 nM)” value ([7]; Fig 4G, GIP 100 nM) was 0.1687, the “Constitutive internalisation (100 nM)” value ([7]; Fig 4G) was 0.4508 and the “Internalisation, +GIP” value ([7]; Fig S4C, INS-1) was 51.1233. The “Internalisation, GIP-only” value ([7]; Fig S4C, INS-1) was 13.9983 and the “Internalisation, Vehicle” value ([7]; Fig S4C, INS-1) was 37.125.
